Assay results published in patent US9073973B2, “Dye conjugates of template-fixed peptidomimetics” (Polyphor LTD., priority 2005, dated 2015).
Numbered stars: 1 amine (or outer) side, 2 acyl side, 3 side chain; on linkers, the order of the positions; unused ones are H or OH. Bridge positions count the residues as written; N and C are the ends. Square brackets hold non-standard residues; d marks the D form. Primed or numbered codes have the meaning given here. Side chains are listed from the residue outwards. Peptide text beside a SMILES is read from it. * marks the point of attachment. FITC′ = 5(6)-fluoresceinthioureido on Lys N-epsilon (Lys(FITC)); Pro(trans-4-NH2) = O=C([C@@H]1C[C@@H](N[*:3])CN1[*:1])[*:2]; 5FAM = O=C1OC2(c3ccc(O)cc3Oc3cc(O)ccc32)c2ccc(C(=O)*)cc21; Dansyl = CN(C)c1cccc2c(S(=O)(=O)*)cccc12; 2Nal = N[C@@H](Cc1ccc2ccccc2c1)C(=O)O; Cit = NC(=O)NCCC[C@H](N)C(=O)O; Ahx = NCCCCCC(=O)O

B1: Example 4 (peptide)
peptide: cyclo(YR[Cit]CRG[dP]RRWCY[Cit]Q)
modifications: disulfide 4-11; not fully specified (C-terminus)
notes: the dye sits on the template; also called Ex. 4

Key:
[1] = test system: human red blood cells (hRBC); assay: Hemolysis; type: cell-based; conditions: percent hemolysis; 100 μM peptide, 20% v/v hRBC, 1 hour at 37° C.
Method: The peptides were tested for their hemolytic activity against human red blood cells (hRBC). Fresh hRBC were washed three times with phosphate buffered saline (PBS) by centrifugation for 10 min at 2000×g. Peptides at a concentration of 100 μM were incubated with 20% v/v hRBC for 1 hour at 37° C. The final erythrocyte concentration was approximately 0.9×10^9 cells per ml. A value of 0% resp. 100% cell lysis was determined by incubation of the hRBC in the presence of PBS alone and respectively 0.1% Triton X-100 in H2O. The samples were centrifuged and the supernatant was 20-fold diluted in PBS buffer and the optical density (OD) of the sample at […] was measured. The 100% lysis value (0D540H20) gave an OD540 of approximately 1.3-1.8. Percent hemolysis was calculated as follows: (0D540peptide/OD540H20)×100%.

HELA cells = assay: Cytotoxicity assay (MTT reduction); type: cell-based; conditions: 48 hours incubation, peptide 12.5, 25 and 50 μM
Method: The cytotoxicity of the peptides to HELA cells (Acc57) and COS-7 cells (CRL-1651) was determined using the MTT reduction assay [see ref. 5 and 6, below]. Briefly the method was as follows: HELA cells and COS-7 cells were seeded at 7.0·10^3 and, respectively, 4.5·10^3 cells per well and grown in 96-well microtiter plates for 24 hours at 37° C. at 5% CO2. At this point, time zero (Tz) was determined by MTT reduction (see below). The supernatant of the remaining wells was discarded, and fresh medium and the peptides in serial dilutions of 12.5, 25 and 50 μM were pipetted into the wells. Each peptide concentration was assayed in triplicate. Incubation of the cells was continued for 48 hours at 37° C. at 5% CO2. Wells were then washed once with PBS, and subsequently 100 μl MTT reagent (0.5 mg/mL in medium RPMI1640 and, respectively, DMEM) was added to the wells. This was incubated at 37° C. for 2 hours and subsequently the medium was aspirated and 100 μl isopropanol was added to each well. The absorbance at 595 nm of the solubilized product was measured (OD595peptide). For each concentration averages were calculated from triplicates. The percentage of growth was calculated as follows: (OD595peptide-OD595Tz-OD595Empty well)/(OD595Tz-OD595Empty well)×100% and was plotted for each peptide concentration. […]

[2] = test system: untransfected 300-19 cells; assay: FACS analysis, untransfected cells (non-specific binding); set-up: species or system mouse; conditions: FIG. 1; FACS at 530 nm, 10,000 cells; background/non-specific binding
Method: (§1) CXCR4 expressing cells (5×10^6/ml) [see references 1, 2 and 3, below] were incubated for 1 hour at 4° C. in a buffer containing HBSS+1% BSA with or without peptidomimetic-dye conjugates at the appropriate concentrations. After this incubation, the cells were washed twice in the same buffer and resuspended at 4×10^6/ml in PBS and kept on ice until measurements were made. All measurements were made on a BD FACSCalibur™ instrument [see ref 4 below] at a wavelength of 530 nm and a total of 10,000 events were counted for each condition. Unlabeled CXCR4 cells and untransfected 300-19 cells were used to establish an appropriate gate for scoring positive and negative events. Four-parameter curve fitting was made from plots of % gated cells vs. concentration of fluorescent compound using Grafit (Erithacus Software).
(§2) The dotted line plot is the histogram obtained from the CXCR4 expressing cells incubated with the compound. The shift to the right on the intensity scale indicates a ˜5-fold increase in fluorescence with >80% of the cells being positive for peptidomimetic-dye conjugates.

CXCR4 expressing cells = biological target: T1, CXCR4 expressing cells (Homo sapiens, UniProt P61073); assay: FACS analysis, labeling of CXCR4 expressing cells; type: binding; conditions: FIG. 1; FACS fluorescence intensity at 530 nm, 10,000 cells
T1 construct: expressed in transfected cells; host or cells: 300-19 cells (mouse pre-B), CXCR4 transfected
Method: as §1, §2

human CXCR4 [3] = biological target: T2, human CXCR4 (human, UniProt P61073 1-352); assay: cell-based or functional assay
human CXCR4 [4] = biological target: T2, human CXCR4; assay: FACS at 530 nm, CXCR4 expressing cells against untransfected cells incubated with the dye conjugate
Method: as §1, with “(5 ×10^6/ml)” for “(5×10^6/ml)”, “4 ×10^6/ml” for “4×10^6/ml”
The dotted line plot is the histogram obtained from the CXCR4 expressing cells incubated with the compound. The shift to the right on the intensity scale indicates a ~5-fold increase in fluorescence with >80% of the cells being positive for peptidomimetic-dye conjugates.

T2 sequence (P61073 whole entry): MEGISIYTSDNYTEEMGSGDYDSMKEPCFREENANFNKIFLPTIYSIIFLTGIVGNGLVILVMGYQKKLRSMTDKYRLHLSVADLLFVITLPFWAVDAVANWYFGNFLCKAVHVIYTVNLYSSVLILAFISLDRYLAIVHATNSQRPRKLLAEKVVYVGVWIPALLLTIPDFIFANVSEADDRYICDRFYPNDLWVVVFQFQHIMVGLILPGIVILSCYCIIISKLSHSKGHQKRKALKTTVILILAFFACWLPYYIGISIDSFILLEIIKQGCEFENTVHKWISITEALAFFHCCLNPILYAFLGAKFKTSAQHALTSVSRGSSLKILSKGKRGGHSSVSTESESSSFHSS
T1 sequence (P61073 whole entry): as above

Row | Molecule | IC50 (nM) Ca2+ assay (calcium mobilization induced by 10 nM SDF-1) (human CXCR4 [3]) [nM] | other results
1 | CN(C)c1cccc2c(S(=O)(=O)NCCCC[C@@H]3NC(=O)[C@H](CCCNC(N)=O)NC(=O)[C@H](Cc4ccc(O)cc4)NC(=O)[C@@H]4CSSC[C@H](NC(=O)[C@H](CCCNC(N)=O)NC(=O)[C@H](CCCNC(=N)N)NC(=O)[C@H](Cc5ccc(O)cc5)NC(=O)[C@@H]5CCCN5C(=O)[C@H]5CCCN5C3=O)C(=O)N[C@@H](CCCNC(=N)N)C(=O)NCC(=O)N3CCC[C@@H]3C(=O)N[C@@H](CCCNC(=N)N)C(=O)N[C@@H](CCCNC(=N)N)C(=O)N[C@@H](Cc3c[nH]c5ccccc35)C(=O)N4)cccc12 [Example 1] (cyclo(YR[Cit]CRG[dP]RRWCY[Cit]K(Dansyl)[dP]P); disulfide 4-11) | – | Hemolysis at 100 μM [1]: 0; Cytotoxicity LC50/GI50 Hela cells (HELA cells): 31
2 | N=C(N)NCCC[C@@H]1NC(=O)[C@@H]2CSSC[C@H](NC(=O)[C@H](Cc3c[nH]c4ccccc34)NC(=O)[C@H](CCCNC(=N)N)NC(=O)[C@H](CCCNC(=N)N)NC(=O)[C@H]3CCCN3C(=O)CNC1=O)C(=O)N[C@@H](Cc1ccc(O)cc1)C(=O)N[C@@H](CCCNC(N)=O)C(=O)N[C@@H](CCC(N)=O)C(=O)N1CCC[C@@H]1C(=O)N1C[C@H](NC(=O)CCCCCNC(=O)c3ccc4c(c3)C(=O)OC43c4ccc(O)cc4Oc4cc(O)ccc43)C[C@H]1C(=O)N[C@@H](Cc1ccc(O)cc1)C(=O)N[C@@H](CCCNC(=N)N)C(=O)N[C@@H](CCCNC(N)=O)C(=O)N2 [Example 4] (cyclo(CRG[dP]RRWCY[Cit]Q[dP][Pro(trans-4-NH2)]([Ahx-5FAM])YR[Cit]); disulfide 1-8) | – | cells binding compound (untransfected cells) [2]: 0.7%; increase in fluorescence (CXCR4 expressing vs untransfected cells) (CXCR4 expressing cells): ~5 fold
3 | cyclo(YRTCRA[dP]RRYCYQK(FITC′)) (disulfide 4-11; not fully specified (C-terminus)) [Example 16] | 4.2 | –
4 | cyclo(YRTCRG[dP]RR[2Nal]CY[Cit]K(FITC′)) (disulfide 4-11; not fully specified (C-terminus)) [Example 7] | 0.9 | –
5 | cyclo(YR[Cit]CRG[dP]RRWCYKQ) (disulfide 4-11; not fully specified (residue 13, C-terminus)) [Example 8] | 9.7 | –
6 | cyclo(YRTCRG[dP]RR[2Nal]CY[Cit]K) (disulfide 4-11; not fully specified (residue 14, C-terminus)) [Example 6] | 37.4 | –
7 | cyclo(HHQCSA[dP]FRYCYQK(FITC′)) (disulfide 4-11; not fully specified (C-terminus)) [Example 11] | 27.5 | –
8 | cyclo(YK[Cit]CRG[dP]RRWCY[Cit]Q) (disulfide 4-11; not fully specified (residue 2, C-terminus)) [Example 9] | 500 | –
9 | cyclo(KR[Cit]CRG[dP]RRWCY[Cit]Q) (disulfide 4-11; not fully specified (residue 1, C-terminus)) [Example 3] | 16.4 | –
10 | cyclo(YRYCRA[dP]FRFCYQK(FITC′)) (disulfide 4-11; not fully specified (C-terminus)) [Example 17] | 21.8 | –
11 | cyclo(YHYCSA[dP]FRYCYQK(FITC′)) (disulfide 4-11; not fully specified (C-terminus)) [Example 18] | > 500 | –
12 | cyclo(YRKCRG[dP]RRWCY[Cit]Q) (disulfide 4-11; not fully specified (residue 3, C-terminus)) [Example 5] | 4.9 | –
13 | cyclo(LHTCRA[dP]RRYCYQK(FITC′)) (disulfide 4-11; not fully specified (C-terminus)) [Example 12] | 6.9 | –
14 | cyclo(YR[Cit]CRG[dP]RRWCY[Cit]K(Dansyl)) (disulfide 4-11; not fully specified (C-terminus)) [Example 1] | 122 | –
15 | cyclo(HHYCRA[dP]FRFCYQK(FITC′)) (disulfide 4-11; not fully specified (C-terminus)) [Example 13] | 29 | –
16 | cyclo(YRTCRG[dP]RRYCYQK(FITC′)) (disulfide 4-11; not fully specified (C-terminus)) [Example 15] | 6 | –
17 | cyclo(SHYCRA[dP]FRFCYQK(FITC′)) (disulfide 4-11; not fully specified (C-terminus)) [Example 14] | 30.4 | –
18 | B1 | 13.4 | fold increase in fluorescence (human CXCR4 [4]): ~5 fold
